Measurements as given in US20230135471A1, “UBIQUITIN VARIANTS WITH IMPROVED AFFINITY FOR 53BP1” (Integrated DNA Technologies, Inc., priority 2021, published 2023).

Each substance was assayed against 53BP1 fragment (a.a. 1221-1718) fused to an adenylate cyclase fragment (two-hybrid) (UniProt Q12888) (assay: cell-based or functional assay).

Substance	Experiment 1 Average Enrichment [log2]	Experiment 1 Rep 1 Enrichment [log2]	Experiment 1 Rep 2 Enrichment [log2]	Experiment 2 Average Enrichment [log2]	Experiment 2 Rep 1 Enrichment [log2]	Experiment 2 Rep 2 Enrichment [log2]	Percent GFP Positive Rep 1 [%]	Percent GFP Positive Rep 2 [%]	Percent GFP Positive Rep 3 [%]
i53 + S65H two-hybrid fusion (designed binder)	1.1	0.69	1.5	1.16	1.34	0.98			
i53 + D58S two-hybrid fusion (designed binder)	0.33	0.29	0.38	0.21	0.24	0.17			
i53 + E18S two-hybrid fusion (designed binder)	0.48	0.47	0.49	0.33	-0.01	0.67			
i53 + N25G two-hybrid fusion (designed binder)	0.71	1.06	0.35	0.38	0.57	0.19			
i53 + E18H two-hybrid fusion (designed binder)	1.17	0.39	1.96	0.07	0.24	-0.11			
i53 + M1S two-hybrid fusion (designed binder)	0.38	0.55	0.21	0.34	0.27	0.41			
i53 + K48V two-hybrid fusion (designed binder)	0.54	0.59	0.48	0.34	0.23	0.46			
i53 + H68Q two-hybrid fusion (designed binder)	0.07	0.44	-0.3	-0.5	-0.62	-0.38			
i53 + K33M two-hybrid fusion (designed binder)	2.34	2.3	2.37	1.06	1.51	0.61			
i53 + K48L two-hybrid fusion (designed binder)	0.05	0.05	0.04	0.2	0.28	0.12			
i53 + E18Q two-hybrid fusion (designed binder)	0.72	0.61	0.83	0.03	0.02	0.05			
i53 + S57D two-hybrid fusion (designed binder)	1.22	1.05	1.39	0.86	0.89	0.83			
i53 + L67S two-hybrid fusion (designed binder)	1.18	1.15	1.2	0.94	1.24	0.63			
i53 + S57E two-hybrid fusion (designed binder)	0.45	0.28	0.62	0.35	0.42	0.28			
i53 + N25K two-hybrid fusion (designed binder)	0.32	0.11	0.54	0.21	0.17	0.24			
i53 + I13H two-hybrid fusion (designed binder)	0.5	-0.27	1.28	-1.6	-2.48	-0.71			
i53 + L67T two-hybrid fusion (designed binder)	0.09	0.69	-0.52	0.11	-0.3	0.52			
i53 + E18R two-hybrid fusion (designed binder)	-0.75	-1.22	-0.28	0.06	-0.24	0.36			

Substance	Experiment 1 Average Enrichment [log2]	Experiment 1 Rep 1 Enrichment [log2]	Experiment 1 Rep 2 Enrichment [log2]	Experiment 2 Average Enrichment [log2]	Experiment 2 Rep 1 Enrichment [log2]	Experiment 2 Rep 2 Enrichment [log2]	Percent GFP Positive Rep 1 [%]	Percent GFP Positive Rep 2 [%]	Percent GFP Positive Rep 3 [%]
i53 + Q41C two-hybrid fusion (designed binder)	0.18	0.22	0.13	-0.03	-0.05	0			
i53 + S65K two-hybrid fusion (designed binder)	1.65	1.61	1.69	0.63	0.74	0.53			
i53 + N25Q two-hybrid fusion (designed binder)	0.72	0.24	1.21	0.18	0.15	0.22			
i53 + Q31R two-hybrid fusion (designed binder)	0.15	0.66	-0.37	-0.22	0.14	-0.58			
i53 + M1I two-hybrid fusion (designed binder)	0.06	0.11	0.01	0	-0.18	0.19			
i53 + S49C two-hybrid fusion (designed binder)	0.6	0.95	0.24	-0.18	-0.04	-0.31			
i53 + M1W two-hybrid fusion (designed binder)	1.83	1.95	1.71	0.96	0.99	0.92			
i53 + R74Q two-hybrid fusion (designed binder)	2.29	2.6	1.98	1.54	1.56	1.52			
i53 + R74C two-hybrid fusion (designed binder)	0.81	0.64	0.99	0.65	0.68	0.63			
i53 + K33L two-hybrid fusion (designed binder)	2.53	2.4	2.65	1.6	1.67	1.53			
i53 + T9V two-hybrid fusion (designed binder)	0.06	0.32	-0.21	-0.15	-0.36	0.06			
i53 + K63F two-hybrid fusion (designed binder)	-0.02	-0.01	-0.02	0.08	-0.06	0.22			
i53 + A28W two-hybrid fusion (designed binder)	0.03	0.48	-0.41	0.12	0.41	-0.17			
i53 + Q31M two-hybrid fusion (designed binder)	-1.74	-0.84	-2.63	0.07	-0.05	0.18			
i53 + K29M two-hybrid fusion (designed binder)	1.6	1.72	1.48	0.9	1.23	0.57	23.9	16.5	17.8
i53 + K33W two-hybrid fusion (designed binder)	-1.01	-2.04	0.01	0.15	0.35	-0.06			
i53 + R54T two-hybrid fusion (designed binder)	0.66	0.62	0.71	0.7	0.76	0.64			
i53 + S20W two-hybrid fusion (designed binder)	-0.36	-0.97	0.25	0.17	0.1	0.24			
